These results are taken from PMC8298264, “Function of cofactor Akirin2 in the regulation of gene expression in model human neutrophil-like HL60 cells” (Bioscience Reports, 2021).

The chains are these.
B1: Serpin B8 (protein, UniProt P50452 1-374, looked up)
Serpin B8: MDDLCEANGTFAISLFKILGEEDNSRNVFFSPMSISSALAMVFMGAKGSTAAQMSQALCLYKDGDIHRGFQSLLSEVNRTGTQYLLRTANRLFGEKTCDFLPDFKEYCQKFYQAELEELSFAEDTEECRKHINDWVAEKTEGKISEVLDAGTVDPLTKLVLVNAIYFKGKWNEQFDRKYTRGMLFKTNEEKKTVQMMFKEAKFKMGYADEVHTQVLELPYVEEELSMVILLPDDNTDLAVVEKALTYEKFKAWTNSEKLTKSKVQVFLPRLKLEESYDLEPFLRRLGMIDAFDEAKADFSGMSTEKNVPLSKVAHKCFVEVNEEGTEAAAATAVVRNSRCSRMEPRFCADHPFLFFIRHHKTNCILFCGRFSSP
B2: Non-secretory ribonuclease (protein, UniProt P10153 28-161, looked up)
Non-secretory ribonuclease: KPPQFTWAQWFETQHINMTSQQCTNAMQVINNYQRRCKNQNTFLLTTFANVVNVCGNPNMTCPSNKTRKNCHHSGSQVPLIHCNLTTPSPQNISNCRYAQTPANMFYIVACDNRDQRRDPPQYPVVPVHLDRII
B3: Cystatin-F (protein, UniProt O76096 20-145, looked up)
Cystatin-F: GPSPDTCSQDLNSRVKPGFPKTIKTNDPGVLQAARYSVEKFNNCTNDMFLFKESRITRALVQIVKGLKYMLEVEIGRTTCKKNQHLRLDDCDFQTNHTLKQTLSCYSEVWVVPWLQHFEVPVLRCH
B4: Alpha-2-HS-glycoprotein (protein, UniProt P02765 19-300; P02765 341-367, looked up)
Alpha-2-HS-glycoprotein chain … 1: APHGPGLIYRQPNCDDPETEEAALVAIDYINQNLPWGYKHTLNQIDEVKVWPQQPSGELFEIEIDTLETTCHVLDPTPVARCSVRQLKEHAVEGDCDFQLLKLDGKFSVVYAKCDSSPDSAEDVRKVCQDCPLLAPLNDTRVVHAAKAALAAFNAQNNGSNFQLEEISRAQLVPLPPSTYVEFTVSGTDCVAKEATEAAKCNLLAEKQYGFCKATLSEKLGGAEVAVTCMVFQTQPVSSQPQPEGANEAVPTPVVDPDAPPSPPLGAPGLPPAGSPPDSHVL
Alpha-2-HS-glycoprotein chain … 2: TVVQPSVGAAAGPVVPPCPGRIRHFKV
B5: Spartin (protein, UniProt Q8N0X7 1-666, looked up)
Spartin: MEQEPQNGEPAEIKIIREAYKKAFLFVNKGLNTDELGQKEEAKNYYKQGIGHLLRGISISSKESEHTGPGWESARQMQQKMKETLQNVRTRLEILEKGLATSLQNDLQEVPKLYPEFPPKDMCEKLPEPQSFSSAPQHAEVNGNTSTPSAGAVAAPASLSLPSQSCPAEAPPAYTPQAAEGHYTVSYGTDSGEFSSVGEEFYRNHSQPPPLETLGLDADELILIPNGVQIFFVNPAGEVSAPSYPGYLRIVRFLDNSLDTVLNRPPGFLQVCDWLYPLVPDRSPVLKCTAGAYMFPDTMLQAAGCFVGVVLSSELPEDDRELFEDLLRQMSDLRLQANWNRAEEENEFQIPGRTRPSSDQLKEASGTDVKQLDQGNKDVRHKGKRGKRAKDTSSEEVNLSHIVPCEPVPEEKPKELPEWSEKVAHNILSGASWVSWGLVKGAEITGKAIQKGASKLRERIQPEEKPVEVSPAVTKGLYIAKQATGGAAKVSQFLVDGVCTVANCVGKELAPHVKKHGSKLVPESLKKDKDGKSPLDGAMVVAASSVQGFSTVWQGLECAAKCIVNNVSAETVQTVRYKYGYNAGEATHHAVDSAVNVGVTAYNINNIGIKAMVKKTATQTGHTLLEDYQIVDNSQRENQEGAANVNVRGEKDEQTKEVKEAKKKDK
B6: PML-RARA-regulated adapter molecule 1 (protein, UniProt Q96QH2 1-670, looked up)
PML-RARA-regulated adapter …: MAHHLPAAMESHQDFRSIKAKFQASQPEPSDLPKKPPKPEFGKLKKFSQPELSEHPKKAPLPEFGAVSLKPPPPEVTDLPKKPPPPEVTDLPKKPPPPEVTDLPKKPPPPEVTDLPKKPSKLELSDLSKKFPQLGATPFPRKPLQPEVGEAPLKASLPEPGAPARKPLQPDELSHPARPPSEPKSGAFPRKLWQPEAGEATPRSPQPELSTFPKKPAQPEFNVYPKKPPQPQVGGLPKKSVPQPEFSEAAQTPLWKPQSSEPKRDSSAFPKKASQPPLSDFPKKPPQPELGDLTRTSSEPEVSVLPKRPRPAEFKALSKKPPQPELGGLPRTSSEPEFNSLPRKLLQPERRGPPRKFSQPEPSAVLKRHPQPEFFGDLPRKPPLPSSASESSLPAAVAGFSSRHPLSPGFGAAGTPRWRSGGLVHSGGARPGLRPSHPPRRRPLPPASSLGHPPAKPPLPPGPVDMQSFRRPSAASIDLRRTRSAAGLHFQDRQPEDIPQVPDEIYELYDDVEPRDDSSPSPKGRDEAPSVQQAARRPPQDPALRKEKDPQPQQLPPMDPKLLKQLRKAEKAEREFRKKFKFEGEIVVHTKMMIDPNAKTRRGGGKHLGIRRGEILEVIEFTSNEEMLCRDPKGKYGYVPRTALLPLETEVYDDVDFCDPLENQPLPLGR
B7: Azurocidin (protein, UniProt P20160 27-248, looked up)
Azurocidin: IVGGRKARPRQFPFLASIQNQGRHFCGGALIHARFVMTAASCFQSQNPGVSTVVLGAYDLRRRERQSRQTFSISSMSENGYDPQQNLNDLMLLQLDREANLTSSVTILPLPLQNATVEAGTRCQVAGWGSQRSGGRLSRFPRFVNVTVTPEDQCRPNNVCTGVLTRRGGICNGDGGTPLVCEGLAHGVASFSLGPCGRGPDFFTRVALFRDWIDGVLNNPGP
B8: Lysozyme C (protein, UniProt P61626 19-148, looked up)
Lysozyme C: KVFERCELARTLKRLGMDGYRGISLANWMCLAKWESGYNTRATNYNAGDRSTDYGIFQINSRYWCNDGKTPGAVNACHLSCSALLQDNIADAVACAKRVVRDPQGIRAWVAWRNRCQNRDVRQYVQGCGV
B9: Serglycin (protein, UniProt P10124 28-158, looked up)
Serglycin: YPTRRARYQWVRCNPDSNSANCLEEKGPMFELLPGESNKIPRLRTDLFPKTRIQDLNRIFPLSEDYSGSGFGSGSGSGSGSGSGFLTEMEQDYQLVDESDAFHDNLRSLDRNLPSDSQDLGQHGLEEDFML
B10: sp¦P11766¦ADHX_HUMAN (protein, UniProt P11766 2-374, looked up)
Alcohol dehydrogenase class-3: ANEVIKCKAAVAWEAGKPLSIEEIEVAPPKAHEVRIKIIATAVCHTDAYTLSGADPEGCFPVILGHEGAGIVESVGEGVTKLKAGDTVIPLYIPQCGECKFCLNPKTNLCQKIRVTQGKGLMPDGTSRFTCKGKTILHYMGTSTFSEYTVVADISVAKIDPLAPLDKVCLLGCGISTGYGAAVNTAKLEPGSVCAVFGLGGVGLAVIMGCKVAGASRIIGVDINKDKFARAKEFGATECINPQDFSKPIQEVLIEMTDGGVDYSFECIGNVKVMRAALEACHKGWGVSVVVGVAASGEEIATRPFQLVTGRTWKGTAFGGWKSVESVPKLVSEYMSKKIKVDEFVTHNLSFDEINKAFELMHSGKSIRTVVKI

The subject of one experiment is human HL60 cells. The experiment can be described thus: SWATH-MS proteomics, differential protein representation, akirin2 KO vs WT HL60 cells. Type of experiment: cell-based. The settings on record: SWATH-MS, akirin2 KO vs WT HL60 cells; over-represented in KO. The procedure, abridged:
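Proteins from WT and akirin2 KO HL60 cells (n=3 biological replicates) were FASP trypsin-digested and analyzed by SWATH-MS DIA with variable windows against an IDA-derived spectral library. Identifications at 1% global FDR; quantities normalized to total area sums of all detected proteins.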
In the case of B1, the “Fold Change” value turned out to be 2.0658 and the “Log (Fold Change)” value was found to be 0.3151.
As to B2, the “Fold Change” value came out at 2.742 and the “Log (Fold Change)” value is listed as 0.4381.
As for B3, the “Fold Change” value turned out to be 2.6697 and the “Log (Fold Change)” value amounted to 0.4265.
Take B4: the “Fold Change” value was 2.248 and the “Log (Fold Change)” value was determined as 0.3517.
In the same order, the values of B5 are 2.789 and 0.4455.
In the same order, the values of B6 are 2.265 and 0.355.
As to B7, the “Fold Change” value stood at 2.563 and the “Log (Fold Change)” value was found to be 0.4087.
For B8, the “Fold Change” value is 2.204 and the “Log (Fold Change)” value stood at 0.3432.
In the case of B9, the “Fold Change” value is reported as 2.81 and the “Log (Fold Change)” value worked out at 0.4488.

The same experiment, now with this note: akirin2 KO vs WT HL60 cells; sheet "Over-represented in KO".
As to B10, the “Fold Change” value was determined as 1.096 and the “Log (Fold Change)” value was found to be 0.03978.
